B1: Subtilisin inhibitor, P01006 (parent)
chain: MRNTGAGPSPSVSRPPPSAAPLSGAALAAPGDAPSALYAPSALVLTVGKGVSATTAAPERAVTLTCAPGPSGTHPAAGSACADLAAVGGDLNALTRGEDVMCPMVYDPVLLTVDGVWQGKRVSYERVFSNECEMNAHGSSVFAF

Variants of: B1
Conditions: Streptomyces albogriseolus; pH 2.9; Thermal; DSC; glycine 25 mM; reversible: yes (70-85%); structure 3SSI; whole UniProt chain shown

Variant	Tm	change of melting temperature, mutant - wild type (higher = more stable)
MRNTGAGPSPSVSRPPPSAAPLSGAALAAPGDAPSALYAPSALVLTVGKGVSATTAAPERAVTLTCAPGPSGTHPAAGSACADLAAVGGDLNALTRGEDVMCPMVYDPVLLTVNGVWQGKRVSYERVFSNECEMNAHGSSVFAF [D114N]	42.3 °C	-2.17 °C

Same assay, conditions: Streptomyces albogriseolus; pH 2.94; Thermal; DSC; glycine 25 mM; reversible: yes (70-85%); structure 3SSI; whole UniProt chain shown

Variant	Tm	change of melting temperature, mutant - wild type (higher = more stable)
MRNTGAGPSPSVSRPPPSAAPLSGAALAAPGDAPSALYAPSALVLTVGKGVSATTAAPERAVTLTCAPGPSGTHPAAGSACADLAAVGGDLNALTRGEDVMCPMVYDPVLLTVNGVWQGKRVSYERVFSNECEMNAHGSSVFAF [D114N]	44.8 °C	0.88 °C

Same assay, conditions: Streptomyces albogriseolus; pH 2.98; Thermal; DSC; glycine 25 mM; reversible: yes (70-85%); structure 3SSI; whole UniProt chain shown

Variant	Tm	change of melting temperature, mutant - wild type (higher = more stable)
MRNTGAGPSPSVSRPPPSAAPLSGAALAAPGDAPSALYAPSALVLTVGKGVSATTAAPERAVTLTCAPGPSGTHPAAGSACADLAAVGGDLNALTRGEDVMCPMVYDPVLLTVNGVWQGKRVSYERVFSNECEMNAHGSSVFAF [D114N]	45.1 °C	-0.2 °C

Same assay, conditions: Streptomyces albogriseolus; pH 3.04; Thermal; DSC; glycine 25 mM; reversible: yes (70-85%); structure 3SSI; whole UniProt chain shown

Variant	Tm	change of melting temperature, mutant - wild type (higher = more stable)
MRNTGAGPSPSVSRPPPSAAPLSGAALAAPGDAPSALYAPSALVLTVGKGVSATTAAPERAVTLTCAPGPSGTHPAAGSACADLAAVGGDLNALTRGEDVMCPMVYDPVLLTVNGVWQGKRVSYERVFSNECEMNAHGSSVFAF [D114N]	46.3 °C	-1.29 °C

Same assay, conditions: Streptomyces albogriseolus; pH 3.07; Thermal; DSC; glycine 25 mM; reversible: yes (70-85%); structure 3SSI; whole UniProt chain shown

Variant	Tm	change of melting temperature, mutant - wild type (higher = more stable)
MRNTGAGPSPSVSRPPPSAAPLSGAALAAPGDAPSALYAPSALVLTVGKGVSATTAAPERAVTLTCAPGPSGTHPAAGSACADLAAVGGDLNALTRGEDVMCPMVYDPVLLTVNGVWQGKRVSYERVFSNECEMNAHGSSVFAF [D114N]	47.3 °C	-1.43 °C

Same assay, conditions: Streptomyces albogriseolus; pH 3.15; Thermal; DSC; glycine 25 mM; reversible: yes (70-85%); structure 3SSI; whole UniProt chain shown

Variant	Tm	change of melting temperature, mutant - wild type (higher = more stable)
MRNTGAGPSPSVSRPPPSAAPLSGAALAAPGDAPSALYAPSALVLTVGKGVSATTAAPERAVTLTCAPGPSGTHPAAGSACADLAAVGGDLNALTRGEDVMCPMVYDPVLLTVNGVWQGKRVSYERVFSNECEMNAHGSSVFAF [D114N]	50.2 °C	-1.03 °C

Same assay, conditions: Streptomyces albogriseolus; pH 3.16; Thermal; DSC; glycine 25 mM; reversible: yes (70-85%); structure 3SSI; whole UniProt chain shown

Variant	Tm	change of melting temperature, mutant - wild type (higher = more stable)
MRNTGAGPSPSVSRPPPSAAPLSGAALAAPGDAPSALYAPSALVLTVGKGVSATTAAPERAVTLTCAPGPSGTHPAAGSACADLAAVGGDLNALTRGEDVMCPMVYDPVLLTVNGVWQGKRVSYERVFSNECEMNAHGSSVFAF [D114N]	49.9 °C	-2.28 °C

Same assay, conditions: Streptomyces albogriseolus; pH 3.19; Thermal; DSC; glycine 25 mM; reversible: yes (70-85%); structure 3SSI; whole UniProt chain shown

Variant	Tm	change of melting temperature, mutant - wild type (higher = more stable)
MRNTGAGPSPSVSRPPPSAAPLSGAALAAPGDAPSALYAPSALVLTVGKGVSATTAAPERAVTLTCAPGPSGTHPAAGSACADLAAVGGDLNALTRGEDVMCPMVYDPVLLTVNGVWQGKRVSYERVFSNECEMNAHGSSVFAF [D114N]	51.4 °C	-1.95 °C

Same assay, conditions: Streptomyces albogriseolus; pH 3.2; Thermal; DSC; glycine 25 mM; reversible: yes (70-85%); structure 3SSI; whole UniProt chain shown

Variant	Tm	change of melting temperature, mutant - wild type (higher = more stable)
MRNTGAGPSPSVSRPPPSAAPLSGAALAAPGDAPSALYAPSALVLTVGKGVSATTAAPERAVTLTCAPGPSGTHPAAGSACADLAAVGGDLNALTRGEDVMCPMVYDPVLLTVNGVWQGKRVSYERVFSNECEMNAHGSSVFAF [D114N]	51.3 °C	-2.3 °C

Same assay, conditions: Streptomyces albogriseolus; pH 3.21; Thermal; DSC; glycine 25 mM; reversible: yes (70-85%); structure 3SSI; whole UniProt chain shown

Variant	Tm	change of melting temperature, mutant - wild type (higher = more stable)
MRNTGAGPSPSVSRPPPSAAPLSGAALAAPGDAPSALYAPSALVLTVGKGVSATTAAPERAVTLTCAPGPSGTHPAAGSACADLAAVGGDLNALTRGEDVMCPMVYDPVLLTVNGVWQGKRVSYERVFSNECEMNAHGSSVFAF [D114N]	51.3 °C	-2.07 °C

Same assay, conditions: Streptomyces albogriseolus; pH 7; Thermal; DSC; phosphate 25 mM; reversible: yes (70-85%); structure 3SSI; whole UniProt chain shown

Variant	Tm	change of melting temperature, mutant - wild type (higher = more stable)
MRNTGAGPSPSVSRPPPSAAPLSGAALAAPGDAPSALYAPSALVLTVGKGVSATTAAPERAVTLTCAPGPSGTHPAAGSACADLAAVGGDLNALTRGEDVMCPMVYDPVLLTVNGVWQGKRVSYERVFSNECEMNAHGSSVFAF [D114N]	83.1 °C	1.07 °C

Same assay, conditions: Streptomyces albogriseolus; pH 9.5; Thermal; DSC; glycine 25 mM; reversible: yes (70-85%); structure 3SSI; whole UniProt chain shown

Variant	Tm	change of melting temperature, mutant - wild type (higher = more stable)
MRNTGAGPSPSVSRPPPSAAPLSGAALAAPGDAPSALYAPSALVLTVGKGVSATTAAPERAVTLTCAPGPSGTHPAAGSACADLAAVGGDLNALTRGEDVMCPMVYDPVLLTVNGVWQGKRVSYERVFSNECEMNAHGSSVFAF [D114N]	82.6 °C	1.88 °C

Same assay, conditions: Streptomyces albogriseolus; pH 9.75; Thermal; DSC; glycine 25 mM; reversible: yes (70-85%); structure 3SSI; whole UniProt chain shown

Variant	Tm	change of melting temperature, mutant - wild type (higher = more stable)
MRNTGAGPSPSVSRPPPSAAPLSGAALAAPGDAPSALYAPSALVLTVGKGVSATTAAPERAVTLTCAPGPSGTHPAAGSACADLAAVGGDLNALTRGEDVMCPMVYDPVLLTVNGVWQGKRVSYERVFSNECEMNAHGSSVFAF [D114N]	82.3 °C	2.06 °C

Reference: FireProtDB (doi:10.1021/bi00252a018)
